Measurements: US20210205286A1

Assays:
USP7 (endogenous) [1] = target: USP7 (endogenous) (UniProt Q93009); test: APEX2-Gal9 proximity biotinylation, SILAC LC-MS/MS, LLOMe; second of three experiments
USP7 (endogenous) [2] = target: USP7 (endogenous) (UniProt Q93009); test: APEX2-Gal9 proximity biotinylation, SILAC LC-MS/MS, GPN; third of three experiments
USP7 (endogenous) [3] = target: USP7 (endogenous) (UniProt Q93009); test: APEX2-Gal9 proximity biotinylation, SILAC LC-MS/MS, LLOMe; first of three experiments
USP7 (endogenous) [4] = target: USP7 (endogenous) (UniProt Q93009); test: APEX2-Gal9 proximity biotinylation, SILAC LC-MS/MS, LLOMe; third of three experiments
USP7 (endogenous) [5] = target: USP7 (endogenous) (UniProt Q93009); test: APEX2-Gal9 proximity biotinylation, SILAC LC-MS/MS, GPN; first of three experiments
USP7 (endogenous) [6] = target: USP7 (endogenous) (UniProt Q93009); test: APEX2-Gal9 proximity biotinylation, SILAC LC-MS/MS, GPN; second of three experiments

USP7 (endogenous), sequence (Q93009 whole entry): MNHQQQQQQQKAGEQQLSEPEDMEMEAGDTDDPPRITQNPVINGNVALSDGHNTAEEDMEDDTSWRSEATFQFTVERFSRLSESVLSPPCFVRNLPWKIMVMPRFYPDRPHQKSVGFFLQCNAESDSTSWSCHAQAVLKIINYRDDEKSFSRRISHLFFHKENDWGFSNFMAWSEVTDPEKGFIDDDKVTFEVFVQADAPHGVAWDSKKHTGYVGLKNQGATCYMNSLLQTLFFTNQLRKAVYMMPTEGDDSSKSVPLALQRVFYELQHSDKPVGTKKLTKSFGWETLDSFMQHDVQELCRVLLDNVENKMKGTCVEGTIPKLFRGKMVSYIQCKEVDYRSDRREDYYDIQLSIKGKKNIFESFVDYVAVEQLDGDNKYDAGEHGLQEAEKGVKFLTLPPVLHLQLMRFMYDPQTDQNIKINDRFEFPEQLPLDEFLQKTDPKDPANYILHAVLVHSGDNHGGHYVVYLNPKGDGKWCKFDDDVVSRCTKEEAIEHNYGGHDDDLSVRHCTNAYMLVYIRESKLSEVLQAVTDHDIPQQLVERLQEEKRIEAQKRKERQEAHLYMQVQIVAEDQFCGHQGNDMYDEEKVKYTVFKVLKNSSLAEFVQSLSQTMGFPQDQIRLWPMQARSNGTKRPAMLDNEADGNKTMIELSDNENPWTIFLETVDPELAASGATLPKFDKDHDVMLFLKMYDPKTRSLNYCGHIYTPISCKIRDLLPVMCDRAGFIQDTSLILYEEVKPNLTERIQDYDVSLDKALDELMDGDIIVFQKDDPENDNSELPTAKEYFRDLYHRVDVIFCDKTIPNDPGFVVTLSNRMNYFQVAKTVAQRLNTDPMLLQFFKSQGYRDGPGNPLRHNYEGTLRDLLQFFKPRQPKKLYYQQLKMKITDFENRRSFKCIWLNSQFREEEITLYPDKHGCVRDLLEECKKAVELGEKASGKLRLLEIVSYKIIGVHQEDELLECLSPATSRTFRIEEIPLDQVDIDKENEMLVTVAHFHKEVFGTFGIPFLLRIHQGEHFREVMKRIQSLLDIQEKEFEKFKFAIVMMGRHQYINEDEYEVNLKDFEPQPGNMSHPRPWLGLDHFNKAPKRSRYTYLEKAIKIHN

peptide counts (peptide counts) (USP7 (endogenous) [1]): 3 | peptide counts (peptide counts) (USP7 (endogenous) [2]): 3 | peptide counts (peptide counts) (USP7 (endogenous) [3]): 2 | peptide counts (peptide counts) (USP7 (endogenous) [4]): 2 | peptide counts (peptide counts) (USP7 (endogenous) [5]): 3 | peptide counts (peptide counts) (USP7 (endogenous) [6]): 4
Substance: APEX2-myc-Gal9 (from UniProt O00182 1-323)
